From PMC4064709, “Acceleration of an aldo-keto reductase by minimal loop engineering” (Protein Engineering, Design and Selection, 2014)

Columns and labels:
Assay in all cases: initial rates of NADH-dependent reduction
Assay type in all cases: biochemical, Yamadazyma tenuis
[1] = tested on: T1, CC(=O)c1ccc(Cl)cc1Cl; conditions: apparent; 300 µM NADH; max 5 mM; W23 and K24 replaced by pentapeptide FAPRE
T1 construct: full-length enzyme; redesigned CtXR expressed in E. coli BL21 (DE3), purified by dye ligand chromatography
From the text: (§1) initial rates of NADH-dependent reduction on Candida tenuis xylose reductase (CtXR)

[2] = tested on: T2, CC(=O)c1ccccc1Cl; conditions: apparent; 300 µM NADH; max 10 mM; W23 and K24 replaced by pentapeptide FAPRE
T2 construct: full-length enzyme; redesigned CtXR expressed in E. coli BL21 (DE3), purified by dye ligand chromatography
From the text: as §1

[3] = tested on: T3, CCOC(=O)C(=O)c1ccc(C#N)cc1; conditions: apparent; 300 µM NADH; max 10 mM; W23 and K24 replaced by pentapeptide FAPRE
T3 construct: full-length enzyme; redesigned CtXR expressed in E. coli BL21 (DE3), purified by dye ligand chromatography
From the text: as §1

[4] = tested on: T4, NC(=O)C1=CN([C@@H]2O[C@H](COP(=O)(O)OP(=O)(O)OC[C@H]3O[C@@H](n4cnc5c(N)ncnc54)[C@H](O)[C@@H]3O)[C@@H](O)[C@H]2O)C=CC1; conditions: apparent; co-substrate 2′-chloroacetophenone (max 10 mM), as in the wild-type row; W23 and K24 replaced by pentapeptide FAPRE; varied: cofactor
T4 construct: full-length enzyme; redesigned CtXR expressed in E. coli BL21 (DE3), purified by dye ligand chromatography
From the text: as §1

[5] = substrate: CC(=O)c1ccc(Cl)cc1Cl; conditions: apparent; 300 µM NADH; incomplete substrate saturation (max 5 mM)
From the text: as §1

[6] = substrate: CC(=O)c1ccccc1Cl; conditions: apparent; 300 µM NADH; incomplete substrate saturation (max 10 mM)
From the text: as §1

[7] = substrate: CCOC(=O)C(=O)c1ccc(C#N)cc1; conditions: apparent; 300 µM NADH; incomplete substrate saturation (max 10 mM)
From the text: as §1

[8] = substrate: NC(=O)C1=CN([C@@H]2O[C@H](COP(=O)(O)OP(=O)(O)OC[C@H]3O[C@@H](n4cnc5c(N)ncnc54)[C@H](O)[C@@H]3O)[C@@H](O)[C@H]2O)C=CC1; conditions: apparent; co-substrate 2′-chloroacetophenone (max 10 mM); varied: cofactor
From the text: as §1

Candida tenuis xylose reductase (CtXR) (Yamadazyma tenuis; INS25PRE/K25A/W24F)
Km [1]: 4 ± 1 mM
kcat [1]: 2.0 ± 0.4 s⁻¹
Km [2]: 5 ± 2 mM
kcat [2]: 1.0 ± 0.2 s⁻¹
kcat/Km [2]: 370 ± 50 M⁻¹ s⁻¹
Km [3]: 4 ± 1 mM
kcat [3]: 17 ± 2 s⁻¹
Km [4]: 0.07 ± 0.02 mM
kcat [4]: 1.0 ± 0.2 s⁻¹
kcat/Km [4]: 7600 ± 500 M⁻¹ s⁻¹

B1: Candida tenuis xylose reductase (CtXR) (Yamadazyma tenuis) (protein)
chain: MSASIPDIKLSSGHLMPSIGFGCWKLANATAGEQVYQAIKAGYRLFDGAEDYGNEKEVGDGVKRAIDEGLVKREEIFLTSKLWNNYHDPKNVETALNKTLADLKVDYVDLFLIHFPIAFKFVPIEEKYPPGFYCGDGNNFVYEDVPILETWKALEKLVAAGKIKSIGVSNFPGALLLDLLRGATIKPAVLQVEHHPYLQQPKLIEFAQKAGVTITAYSSFGPQSFVEMNQGRALNTPTLFAHDTIKAIAAKYNKTPAEVLLRWAAQRGIAVIPKSNLPERLVQNRSFNTFDLTKEDFEEIAKLDIGLRFNDPWDWDNIPIFV
notes: full-length enzyme; redesigned CtXR expressed in E. coli BL21 (DE3), purified by dye ligand chromatography
Km [5]: 6 ± 2 mM
kcat [5]: 2.7 ± 0.3 s⁻¹
Km [6]: 13 ± 4 mM
Km [7]: 5 ± 2 mM
kcat [7]: 0.4 ± 0.06 s⁻¹
kcat/Km [7]: 100 ± 10 M⁻¹ s⁻¹
Km [8]: 0.11 ± 0.025 mM
kcat [8]: 0.8 ± 0.1 s⁻¹
kcat/Km [8]: 8700 ± 400 M⁻¹ s⁻¹
